Results: article PMC5914118, “Exploiting the Concept of Multivalency with ^68Ga- and ^89Zr-Labelled Fusarinine C-Minigastrin Bioconjugates for Targeting CCK2R Expression” (Contrast Media & Molecular Imaging, 2018)
Where two headings read alike, the source gives them in different places. Marks after values point to notes of the source that are not given here.

Tests used:
[1] = system: A431-CCK2R/A431-mock tumour xenografted BALB/c nude mice; details: mouse, in vivo
Method: All animal experiments were conducted in compliance with the Austrian and Dutch animal protection laws and with approval of the Austrian Ministry of Science (BMWF-66.011/000604-II/3b/2012 and BMWFW-66.011/0049-WF/II/3b/2014). In vivo stability studies were conducted in 5-week-old female BALB/c mice (in-house breed, ZVTA Innsbruck, Dr. Hermann Dietrich). The biodistribution studies were performed using female 8−10-week-old athymic BALB/c nude mice (Charles River Laboratories, Sulzfeld, Germany). Tumour xenografts were induced by subcutaneous injection of 2 × 10^6 A431-CCK2R cells (receptor positive) in the right and the same amount of A431-mock (receptor negative) in the left flank. Tumours were allowed to grow until they had reached a volume of 0.3–0.6 cm^3. To evaluate the biodistribution profile nude mice (n = 4) were intravenously injected with either 1-2 MBq ^68Ga- or 0.3 MBq ^89Zr-labelled mono-, di-, and trimer (0.1–0.2 nmol). The animals were sacrificed by cervical dislocation after 1 h as well as 2 h and 4 h in case of ^68Ga- and ^89Zr-labelled trimer, followed by the collection of organs and tissue. The collected samples were measured in the gamma counter and the results were calculated as percentage of injected dose per gram tissue (% ID/g).

[2] = format: physicochemical
Method: Aliquots (50 μL) of ^68Ga- and ^89Zr-labelled mono-, di-, and trimer (10 μM) were diluted in 450 μL PBS. After adding 500 μL octanol the mixture was vortexed with 1400 rpm (MS 3 basic vortexer, IKA, Staufen, Germany) for 15 min at RT followed by centrifugation for 2 min at 4500 rpm. Subsequently, 100 μL aliquots of the organic and the aqueous layer were collected and logD values were calculated using Excel (n = 3, six replicates) after gamma counter measurement.

SMILES: CSCC[C@H](NC(=O)[C@H](Cc1c[nH]c2ccccc12)NC(=O)CNC(=O)[C@H](Cc1ccc(O)cc1)NC(=O)[C@H](C)NC(=O)[C@@H](CCC(=O)O)NC(=O)CCSC1CC(=O)N(CCC(=O)NC2CCCN(O)C(=O)C=C(C)CCOC(=O)C(NC(=O)CCN3C(=O)CC(SCCC(=O)N[C@H](CCC(=O)O)C(=O)N[C@@H](C)C(=O)N[C@@H](Cc4ccc(O)cc4)C(=O)NCC(=O)N[C@@H](Cc4c[nH]c5ccccc45)C(=O)N[C@@H](CCSC)C(=O)N[C@@H](CC(=O)O)C(=O)N[C@@H](Cc4ccccc4)C(N)=O)C3=O)CCCN(O)C(=O)C=C(C)CCOC(=O)C(NC(C)=O)CCCN(O)C(=O)C=C(C)CCOC2=O)C1=O)C(=O)N[C@@H](CC(=O)O)C(=O)N[C@@H](Cc1ccccc1)C(N)=O (some centres unmarked) [^89Zr-labelled Dimer, metal not drawn]
- Tumour-to-organ ratio (T/O): A431-mock [1]: 11.2 ± 2.3
- Tumour-to-organ ratio (T/O): Blood [1]: 7.4 ± 2.3^c
- Tumour-to-organ ratio (T/O): Bone [1]: 7.4 ± 1.2^c
- Tumour-to-organ ratio (T/O): Heart [1]: 9.8 ± 4.8
- Tumour-to-organ ratio (T/O): Intestine [1]: 12.5 ± 3.1
- Tumour-to-organ ratio (T/O): Kidneys [1]: 0.15 ± 0.06
- Tumour-to-organ ratio (T/O): Liver [1]: 10.3 ± 3.2^c
- Tumour-to-organ ratio (T/O): Lung [1]: 7.6 ± 2.9^c
- Tumour-to-organ ratio (T/O): Muscle [1]: 7.9 ± 5.3
- Tumour-to-organ ratio (T/O): Pancreas [1]: 9.2 ± 3.1^c
- Tumour-to-organ ratio (T/O): Spleen [1]: 10.5 ± 4.5
- Tumour-to-organ ratio (T/O): Stomach [1]: 3.4 ± 1.1
- Biodistribution: A431-CCK2R tumour (receptor positive) ([1]; 1 h): 7.69 ± 1.34^ac % ID/g
- Biodistribution: A431-mock tumour (receptor negative) ([1]; 1 h): 0.86 ± 0.22 % ID/g
- Biodistribution: Blood ([1]; 1 h): 1.17 ± 0.28 % ID/g
- Biodistribution: Bone ([1]; 1 h): 1.36 ± 0.42 % ID/g
- Biodistribution: Heart ([1]; 1 h): 1.01 ± 0.37 % ID/g
- Biodistribution: Intestine ([1]; 1 h): 0.73 ± 0.25 % ID/g
- Biodistribution: Kidneys ([1]; 1 h): 55.5 ± 10.3 % ID/g
- Biodistribution: Liver ([1]; 1 h): 0.83 ± 0.20 % ID/g
- Biodistribution: Lung ([1]; 1 h): 1.16 ± 0.28 % ID/g
- Biodistribution: Muscle ([1]; 1 h): 1.51 ± 0.70 % ID/g
- Biodistribution: Pancreas ([1]; 1 h): 0.95 ± 0.23^c % ID/g
- Biodistribution: Spleen ([1]; 1 h): 0.99 ± 0.40 % ID/g
- Biodistribution: Stomach ([1]; 1 h): 2.99 ± 1.13 % ID/g
- Distribution coefficient logD (pH 7.4) [2]: −2.83 ± 0.02

SMILES: CSCC[C@H](NC(=O)[C@H](Cc1c[nH]c2ccccc12)NC(=O)CNC(=O)[C@H](Cc1ccc(O)cc1)NC(=O)[C@H](C)NC(=O)[C@@H](CCC(=O)O)NC(=O)CCSC1CC(=O)N(CCC(=O)NC2CCCN(O)C(=O)C=C(C)CCOC(=O)C(NC(C)=O)CCCN(O)C(=O)C=C(C)CCOC(=O)C(NC(C)=O)CCCN(O)C(=O)C=C(C)CCOC2=O)C1=O)C(=O)N[C@@H](CC(=O)O)C(=O)N[C@@H](Cc1ccccc1)C(N)=O (some centres unmarked) [^89Zr-labelled Monomer, metal not drawn]
- Tumour-to-organ ratio (T/O): A431-mock [1]: 7.5 ± 1.8
- Tumour-to-organ ratio (T/O): Blood [1]: 9.0 ± 4.7^b
- Tumour-to-organ ratio (T/O): Bone [1]: 4.7 ± 1.3^b
- Tumour-to-organ ratio (T/O): Heart [1]: 14.8 ± 4.7^b
- Tumour-to-organ ratio (T/O): Intestine [1]: 7.9 ± 2.3
- Tumour-to-organ ratio (T/O): Kidneys [1]: 0.17 ± 0.03^b
- Tumour-to-organ ratio (T/O): Liver [1]: 12.4 ± 2.8^b
- Tumour-to-organ ratio (T/O): Lung [1]: 6.5 ± 1.6^b
- Tumour-to-organ ratio (T/O): Muscle [1]: 15.9 ± 4.2^b
- Tumour-to-organ ratio (T/O): Pancreas [1]: 13.3 ± 2.9^b
- Tumour-to-organ ratio (T/O): Spleen [1]: 18.7 ± 6.1^b
- Tumour-to-organ ratio (T/O): Stomach [1]: 4.9 ± 1.3^b
- Biodistribution: A431-CCK2R tumour (receptor positive) ([1]; 1 h): 1.91 ± 0.40 % ID/g
- Biodistribution: A431-mock tumour (receptor negative) ([1]; 1 h): 0.26 ± 0.05^ab % ID/g
- Biodistribution: Blood ([1]; 1 h): 0.30 ± 0.19^ab % ID/g
- Biodistribution: Bone ([1]; 1 h): 0.42 ± 0.10^ab % ID/g
- Biodistribution: Heart ([1]; 1 h): 0.14 ± 0.05^ab % ID/g
- Biodistribution: Intestine ([1]; 1 h): 0.27 ± 0.10^abd % ID/g
- Biodistribution: Kidneys ([1]; 1 h): 11.3 ± 2.10^ab % ID/g
- Biodistribution: Liver ([1]; 1 h): 0.16 ± 0.04^abd % ID/g
- Biodistribution: Lung ([1]; 1 h): 0.31 ± 0.09^ab % ID/g
- Biodistribution: Muscle ([1]; 1 h): 0.13 ± 0.04^ab % ID/g
- Biodistribution: Pancreas ([1]; 1 h): 0.15 ± 0.04^abd % ID/g
- Biodistribution: Spleen ([1]; 1 h): 0.12 ± 0.04^ab % ID/g
- Biodistribution: Stomach ([1]; 1 h): 0.42 ± 0.14^abd % ID/g
- Distribution coefficient logD (pH 7.4) [2]: −3.17 ± 0.06

SMILES: CSCC[C@H](NC(=O)[C@H](Cc1c[nH]c2ccccc12)NC(=O)CNC(=O)[C@H](Cc1ccc(O)cc1)NC(=O)[C@H](C)NC(=O)[C@@H](CCC(=O)O)NC(=O)CCSC1CC(=O)N(CCC(=O)NC2CCCN(O)C(=O)C=C(C)CCOC(=O)C(NC(=O)CCN3C(=O)CC(SCCC(=O)N[C@H](CCC(=O)O)C(=O)N[C@@H](C)C(=O)N[C@@H](Cc4ccc(O)cc4)C(=O)NCC(=O)N[C@@H](Cc4c[nH]c5ccccc45)C(=O)N[C@@H](CCSC)C(=O)N[C@@H](CC(=O)O)C(=O)N[C@@H](Cc4ccccc4)C(N)=O)C3=O)CCCN(O)C(=O)C=C(C)CCOC(=O)C(NC(=O)CCN3C(=O)CC(SCCC(=O)N[C@H](CCC(=O)O)C(=O)N[C@@H](C)C(=O)N[C@@H](Cc4ccc(O)cc4)C(=O)NCC(=O)N[C@@H](Cc4c[nH]c5ccccc45)C(=O)N[C@@H](CCSC)C(=O)N[C@@H](CC(=O)O)C(=O)N[C@@H](Cc4ccccc4)C(N)=O)C3=O)CCCN(O)C(=O)C=C(C)CCOC2=O)C1=O)C(=O)N[C@@H](CC(=O)O)C(=O)N[C@@H](Cc1ccccc1)C(N)=O (some centres unmarked) [^89Zr-labelled Trimer, metal not drawn]
- Biodistribution: A431-CCK2R tumour (receptor positive) ([1]; 1 h): 4.28 ± 0.95^b % ID/g
- Biodistribution: A431-mock tumour (receptor negative) ([1]; 1 h): 0.81 ± 0.24^d % ID/g
- Biodistribution: Blood ([1]; 1 h): 1.46 ± 0.32^d % ID/g
- Biodistribution: Bone ([1]; 1 h): 1.39 ± 0.65 % ID/g
- Biodistribution: Heart ([1]; 1 h): 0.92 ± 0.21^d % ID/g
- Biodistribution: Intestine ([1]; 1 h): 0.56 ± 0.14^d % ID/g
- Biodistribution: Kidneys ([1]; 1 h): 57.7 ± 14.4^e % ID/g
- Biodistribution: Liver ([1]; 1 h): 0.84 ± 0.21^d % ID/g
- Biodistribution: Lung ([1]; 1 h): 1.44 ± 0.39^d % ID/g
- Biodistribution: Muscle ([1]; 1 h): 0.47 ± 0.18^cd % ID/g
- Biodistribution: Pancreas ([1]; 1 h): 1.56 ± 0.44 % ID/g
- Biodistribution: Spleen ([1]; 1 h): 0.79 ± 0.23^d % ID/g
- Biodistribution: Stomach ([1]; 1 h): 3.10 ± 0.97 % ID/g
- Biodistribution: A431-CCK2R tumour (receptor positive) ([1]; 2 h): 8.90 ± 3.10^e % ID/g
- Biodistribution: A431-mock tumour (receptor negative) ([1]; 2 h): 0.93 ± 0.29^d % ID/g
- Biodistribution: Blood ([1]; 2 h): 1.19 ± 0.32^d % ID/g
- Biodistribution: Bone ([1]; 2 h): 2.07 ± 0.68 % ID/g
- Biodistribution: Heart ([1]; 2 h): 0.91 ± 0.25^d % ID/g
- Biodistribution: Intestine ([1]; 2 h): 0.44 ± 0.30^d % ID/g
- Biodistribution: Kidneys ([1]; 2 h): 96.5 ± 23.6^f % ID/g
- Biodistribution: Liver ([1]; 2 h): 1.28 ± 0.35^d % ID/g
- Biodistribution: Lung ([1]; 2 h): 1.21 ± 0.23^d % ID/g
- Biodistribution: Muscle ([1]; 2 h): 0.42 ± 0.07^d % ID/g
- Biodistribution: Pancreas ([1]; 2 h): 1.51 ± 0.40 % ID/g
- Biodistribution: Spleen ([1]; 2 h): 0.90 ± 0.25^d % ID/g
- Biodistribution: Stomach ([1]; 2 h): 3.15 ± 0.75 % ID/g
- Biodistribution: A431-CCK2R tumour (receptor positive) ([1]; 4 h): 14.39 ± 3.92 % ID/g
- Biodistribution: A431-mock tumour (receptor negative) ([1]; 4 h): 0.66 ± 0.06^d % ID/g
- Biodistribution: Blood ([1]; 4 h): 0.75 ± 0.26^d % ID/g
- Biodistribution: Bone ([1]; 4 h): 4.41 ± 1.31 % ID/g
- Biodistribution: Heart ([1]; 4 h): 0.91 ± 0.09^d % ID/g
- Biodistribution: Intestine ([1]; 4 h): 0.65 ± 0.07^d % ID/g
- Biodistribution: Kidneys ([1]; 4 h): 150.5 ± 18.3 % ID/g
- Biodistribution: Liver ([1]; 4 h): 1.71 ± 0.32^d % ID/g
- Biodistribution: Lung ([1]; 4 h): 0.84 ± 0.20^d % ID/g
- Biodistribution: Muscle ([1]; 4 h): 0.62 ± 0.23 % ID/g
- Biodistribution: Pancreas ([1]; 4 h): 2.34 ± 0.59 % ID/g
- Biodistribution: Spleen ([1]; 4 h): 0.95 ± 0.13^d % ID/g
- Biodistribution: Stomach ([1]; 4 h): 3.50 ± 0.86^d % ID/g
- Distribution coefficient logD (pH 7.4) [2]: −2.41 ± 0.04
